The source of these data is US20210332145A1 (SINGLE CELL TECHNOLOGY, published 2021).

Residue numbers refer to the chain shown, from its start.

The labels stand for the following.
T1: BCMA on cells (293T cells transfected with BCMA; H929, MM.1S and U266 cell lines expressing BCMA) (human, UniProt Q02223 1-184)
T1 construct: H929, MM.1S and U266 carry the native protein; also called B-cell Maturation Antigen; TNFRSF17
T1 sequence: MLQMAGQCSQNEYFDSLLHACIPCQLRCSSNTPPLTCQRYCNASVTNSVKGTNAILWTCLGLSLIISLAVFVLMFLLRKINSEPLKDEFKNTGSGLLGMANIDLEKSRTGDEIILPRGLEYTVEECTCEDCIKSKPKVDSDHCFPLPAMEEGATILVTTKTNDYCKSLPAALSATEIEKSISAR

T2: human BCMA with a His tag (ACROBiosystems, Catalog No.: BCA-H522y) (human)
T2 construct: Bought His-tagged recombinant protein; also called huBCMA-His; Recombinant human BCMA
T2 chain: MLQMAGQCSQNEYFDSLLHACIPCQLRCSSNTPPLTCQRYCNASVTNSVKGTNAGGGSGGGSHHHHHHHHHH

T3: mouse BCMA with a His tag (ACROBiosystems, Catalog No.: BCA-M52H3) (mouse)
T3 construct: Bought His-tagged recombinant protein
T3 chain: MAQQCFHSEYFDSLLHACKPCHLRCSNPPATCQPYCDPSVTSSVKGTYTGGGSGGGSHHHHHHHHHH

B1: SCT-Aa01(m/m) (antibody, V domains shown)
VH: DVQLQESGPGLVKPSQSLSLTCSVTGYSITSGYYWNWIRQFPGNKLEWMGYIRYDGSNNYNPSLKNRISITRDTSKNQFFLKLNSVTTEDTATYYCAPYDYDYAMDFWGQGTSVTVSS
VL: DIQMTQSPASLSASVGETVTITCRASGNIHNYLAWYQQKQGKSPQLLVYNAKTLAHGVPSRFSGSGSGTQYSLKITSLQPEDFGTYYCQHFWSTPFTFGSGTKLEIK
notes: Full IgG format: mouse IgG1 heavy chain constant region, mouse kappa light chain constant region
B2: SCT-Aa13(m/m) (antibody, V domains shown)
VH: QVQLQQSDAELVKPGASVKISCKVSGYTFTDYTIHWMKQRPEQGLEWIGYIYPRDGSTKYNEKFKGKATLTADKSSSTAYMQLNSLTSEDSAVYFCARWDYEGFDYWGQGTTLTVSS
VL: DIVMTQSPATLSVTPGDRVSLSCRASQSISDYLHWYQQKSHESPRLLIKYASQSISGIPSRFSGSGSGSDFTLSINSVEPEDVGVYYCQNGHSFPPTFGSGTKLEIK
notes: as for B1
B3: SCT-Aa14(m/m) (antibody, V domains shown)
VH: B2 VH with G26S, Y32H, Y52F
VL: B2 VL with S28N
notes: as for B1
B4: SCT-Aa15(h/h) (antibody, V domains shown)
VH: B2 VH with A16P, Y27S, Y32H, I34V, I51V, K59R
VL: B2 VL with S28N, E105K
notes: Full IgG format, chimeric: human IgG1 heavy chain constant region, human kappa light chain constant region
B5: SCT-Aa09(m/m) (antibody, V domains shown)
VH: B2 VH with Y32H, I51F, G56D, S57N, K74R
VL: B2 VL with S30R
notes: as for B1
B6: SCT-Aa05(m/m) (antibody, V domains shown)
VH: EVKLLQSGGGLVQPGGSLKLSCAASGIDFSRYWMSWVRRAPGKGLEWIGEINPDSSTINYAPSLKDKFIISRDNAKNTLYLQMSKVRSEDTGLYYCASLYYDYEREYGMDYWGQGTSVTVSS
VL: DIVMTQSQKFMSTSVGDRVSVTCKASQNVGTNVAWYQQKPGQSPKALIYSASYRFSGVPDRFTGSGSGTDFTLTISNVQSEDLAEYFCQQYNSYPYTFGGGTKLEIK
notes: as for B1
B7: SCT-Aa03(m/m) (antibody, V domains shown)
VH: EVKLLQSGGGLVQPGGSLKLSCAASGIDFSRYWMSWVRRAPGKGLEWIGEINPDSSTINYAPSLKDKFIISRDNAKNTLYLQMSKVRSEDTALYYCASFYYDYDHAMDYWGQGTSVTVSS
VL: B6 VL with V19F, Y96F, G100S
notes: as for B1
B8: SCT-Aa04(h/h) (antibody, V domains shown)
VH: B6 VH with G92A, L99F, E104D, E106G, Y107A, G108A
VL: B6 VL with F55Y
notes: as for B4
B9: SCT-Aa02(h/h) (antibody, V domains shown)
VH: B6 VH with Y60S, K65E, G92A, E106D, G108A, T116A
VL: B6 VL with N92H, Y96F
notes: as for B4
B10: SCT-Aa05(h/h) (antibody, V domains shown)
VH: B6 VH
VL: B6 VL
notes: as for B4

For the first assay, the target named is T1, BCMA on cells (293T cells transfected …). The assay can be described thus: flow cytometry, H929 cells. As to the method: A cell line expressing BCMA, H929, was used to assess binding by anti-BCMA antibodies on the native protein on the cell surface by flow cytometry according to the known art. A subset of anti-human BCMA antibodies were assayed for binding to H929 and the fraction of cells bound the labeled antibody above background defined by control is shown in Table 8.
Background: In flow cytometry, cells or beads pass a laser one at a time.
B1: the “Positive (%)” value turned out to be 99.8%.

Consider B2, for which the “Positive (%)” value came to 99.9%.

On to B3, for which the “Positive (%)” value amounted to 75.1%.

Regarding B4, the “Positive (%)” value came to 34.8%.

B5: the “Positive (%)” value is 18.4%.

As to B6, the “Positive (%)” value turned out to be 99.9%.

Consider B7, for which the “Positive (%)” value turned out to be 99.9%.

As for B8, the “Positive (%)” value was 96.5%.

In the case of B9, the “Positive (%)” value amounted to 99.2%.

As to B10, the “Positive (%)” value stood at 96.5%.

A further assay has as its target T2, human BCMA with a His tag …. The assay can be described thus: ELISA, plate-coated human BCMA-His. As to the method: (§1) The recombinantly expressed antibodies were used to assess binding activity to BCMA of different species origins by conventional ELISA according to the known art. Recombinant human BCMA, cyno BCMA, and mouse BCMA were coated onto ELISA plates to detect binding at serially diluted concentrations of the anti-BCMA antibody preparations.
(§2) The ability for antibodies of the present disclosure to bind human BCMA was measured with an ELISA assay. For the BCMA binding assay, a 96-well plate (Nunc) is coated with human BCMA with a His tag (ACROBiosystems, Catalog No.: AC108P1-180611F2-Bulk, SEQ ID NO:2) at 0.2 μg/well overnight at 4° C. Wells are blocked for 2 h with blocking buffer (PBS containing 3% bovine serum albumin). Wells are washed three times with PBS containing 0.1% Tween-20. Anti-human BCMA antibodies of the present disclosure or control IgG (100 μL) is then added and incubated at room temperature for 1 h. After washing, the plate is incubated with 100 μL of goat anti-mouse IgG Fcγ Fragment Specific-HRP conjugate (Jackson ImmunoResearch) at room temperature for 1 h. The plates are washed and then incubated with 100 μL of 3,3′,5,5′-tetra-methylbenzidine. The absorbance at 450 nm is read on a microplate reader. The half maximal effective concentration (EC50) is calculated using GraphPad Prism 6 software.
In experiments performed essentially as described above, anti-human BCMA antibodies of the present disclosure bind human BCMA with a His tag (ACROBiosystems, Beijing, China, Catalog No.: BCA-H522y, SEQ ID NO:2) with an EC50 values shown in Table 3.
On the technique in general: ELISA stands for enzyme-linked immunosorbent assay.
For orientation: EC50 means the concentration that produces a half-maximal response. For the molecule B1, the concentration for a half-maximal effect (EC50) turned out to be 2.92 ng/mL.

On to B2, for which the midpoint of the response, the EC50, lay at 2.64 ng/mL. This EC50 and that of the molecule before are within 1.5-fold of each other.

Consider B3, for which the response was half-maximal at 2.52 ng/mL (EC50).

B4 had an EC50 of 3.71 ng/mL.

In turn, B5 registered a concentration giving a half-maximal response (EC50) of 1.96 ng/mL.

B6 returned an EC50 of 2.12 ng/mL.

B7 returned a concentration giving a half-maximal response (EC50) of 1.71 ng/mL.

B8 gave an EC50 of 2.48 ng/mL.

B9: the EC50 came to 2.85 ng/mL.

In the case of B10, the EC50 turned out to be 2.35 ng/mL.

Another assay deals with T3, mouse BCMA with a His tag …. The assay can be described thus: ELISA, plate-coated mouse BCMA-His. As to the method:
as §1, §2
In experiments performed essentially as described above, anti-human BCMA antibodies of the present disclosure bind mouse BCMA with a His tag (ACROBiosystems, Beijing, China, Catalog No.: BCA-M52H3, SEQ ID NO:109) with an EC50 values shown in Table 5.
Take B2: the 50% effective concentration (EC50) was determined as 529 ng/mL.

Regarding B3, the concentration for a half-maximal effect (EC50) came out at 2340 ng/mL.

Consider B4, for which the 50% effective concentration (EC50) was found to be 226 ng/mL. Compared with the last molecule, the EC50 is about 10-fold lower.

In the case of B6, the concentration giving a half-maximal response (EC50) was determined as 52.2 ng/mL.

Molecule B7 came in with an EC50 of 79.1 ng/mL.

B8: the EC50 stood at 270 ng/mL.

Regarding B10, the response was half-maximal at 29.4 ng/mL (EC50).

Another assay has as its target T1, BCMA on cells (293T cells transfected …). Briefly: flow cytometry, H929 cells. The source holds these as a separate data set.
As to B1, the Mean fluorescent intensity came out at 2090.

B2 showed a Mean fluorescent intensity of 2560.

For the molecule B3, the Mean fluorescent intensity was determined as 475.

B4 showed a Mean fluorescent intensity of 141.

As for B5, the Mean fluorescent intensity is 102.

The molecule B6 yielded a Mean fluorescent intensity of 2020.

The molecule B7 had a Mean fluorescent intensity of 3920.

B8 showed a Mean fluorescent intensity of 623.

Regarding B9, the Mean fluorescent intensity was 1280.

Molecule B10 showed a Mean fluorescent intensity of 758.

For the next assay, the target named is T2, human BCMA with a His tag …. The assay can be described thus: SPR, Biacore T200. As to the method:
The binding affinity of select anti-BCMA was measured on a surface plasmon resonance (SPR) instrument, Biacore T200™, against human BCMA by a method known in the art.
In experiments performed essentially as described above, a subset of anti-human BCMA antibodies of the present disclosure bind human BCMA with a His tag (ACROBiosystems, Beijing, China, Catalog No.: BCA-H522y, SEQ ID NO:2) with affinity shown in Table 6.
Usually Kd stands for a measure of binding affinity in units of concentration. A lower Kd goes with tighter binding. A word on the koff: it is a measure of how fast the partners let go of each other. A higher koff goes with fast dissociation. By kon is commonly meant a measure of how fast the partners come together. Higher therefore signals faster complex formation. B1 gave a Kd of 68.6 nM, an off-rate constant (koff) of 0.0175 s⁻¹ and an association rate constant (kon) of 255000 M⁻¹ s⁻¹.

B2 yielded a dissociation constant Kd of 43.8 nM, a dissociation rate constant (koff) of 0.0358 s⁻¹ and an on-rate (kon) of 817000 M⁻¹ s⁻¹.

In turn, B3 displayed a dissociation constant (Kd) of 20.4 nM, a dissociation rate constant (koff) of 0.0376 s⁻¹ and a kon of 1.85e+06 M⁻¹ s⁻¹.

Take B4: the Kd amounted to 1.19 nM, the koff was found to be 0.0062 s⁻¹ and the kon was found to be 5.21e+06 M⁻¹ s⁻¹.

The molecule B5 returned a Kd of 76.6 nM, a dissociation rate constant (koff) of 0.127 s⁻¹ and a kon of 1.66e+06 M⁻¹ s⁻¹.

B6 returned a Kd of 4.91 nM, an off-rate (koff) of 0.00034 s⁻¹ and a kon of 69200 M⁻¹ s⁻¹.

Turning to B7, the Kd was 11.7 nM, the off-rate constant (koff) was found to be 0.00263 s⁻¹ and the kon amounted to 224000 M⁻¹ s⁻¹.

In turn, B8 came in with a dissociation constant (Kd) of 32.6 nM, an off-rate (koff) of 0.034 s⁻¹ and a kon of 1.04e+06 M⁻¹ s⁻¹.

In turn, B9 registered a Kd of 1.22 nM, a koff of 0.000374 s⁻¹ and a kon of 306000 M⁻¹ s⁻¹.

Regarding B10, the Kd came to 9.93 nM, the dissociation rate constant (koff) is 0.000995 s⁻¹ and the kon was determined as 100000 M⁻¹ s⁻¹.

In another assay the target is T4, cyno BCMA with a His tag (ACROBiosystems, Catalog No.: BCA-052H7) (cyno).
T4 construct: Bought His-tagged recombinant protein
T4 sequence (chain, as listed by the source limits assumed): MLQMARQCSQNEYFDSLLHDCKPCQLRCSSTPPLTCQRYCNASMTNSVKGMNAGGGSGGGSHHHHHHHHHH
Briefly: ELISA, plate-coated cyno BCMA-His. The protocol:
as §1, §2
In experiments performed essentially as described above, anti-human BCMA antibodies of the present disclosure bind cyno BCMA with a His tag (ACROBiosystems, Beijing, China, Catalog No.: BCA-052H7, SEQ ID NO:110) with an EC50 values shown in Table 4.
B1 gave an EC50 of 5.7 ng/mL.

On to B2, for which a half-maximal response (EC50) required 174 ng/mL.

In the case of B5, the response was half-maximal at 5570 ng/mL (EC50).

The molecule B9 showed an EC50 of 43.3 ng/mL.

For the next assay, the target named is T1, BCMA on cells (293T cells transfected …). Briefly: flow cytometry, 293T cells transfected with BCMA, above parental 293T background.
B1: the “Positive (%)” value was 48.2%.

Regarding B2, the “Positive (%)” value was 84.4%.

As to B3, the “Positive (%)” value was found to be 52.2%.

Take B4: the “Positive (%)” value came to 32%.

With B5, the “Positive (%)” value amounted to 16.9%.

On to B6, for which the “Positive (%)” value worked out at 94.3%.

Turning to B7, the “Positive (%)” value stood at 91.6%.

As for B8, the “Positive (%)” value is 72%.

As to B9, the “Positive (%)” value was found to be 81.9%.

As to B10, the “Positive (%)” value is 76.3%.
